The values below come from patent US20110195896A1 (CASE WESTERN RESERVE UNIVERSITY, published 2011).

Where a chain is given by its changes, count along the chain named. Ends that are not written are not given here.

In test [1] the target is T1, Type I IGF receptor (UniProt P08069 31-1367).
T1 construct: also called IGF-I RECEPTOR; Insulin-like Growth Factor Receptor
The test is described as follows: competitive displacement of 125I-IGF-1 from IGFR. A general note: Loss of bound radioactivity is the signal in a displacement assay; it reports binding, not function.

For test [2], the target named is T1, Type I IGF receptor. The test is described as follows: competitive displacement of labelled tracer from IGFR. As for the experimental part:
Receptor-Binding Assays. […] This assay employs the purified epitope-tagged receptor (IR-A, IR-B, or IGFR) using a microtiter-plate antibody-capture assay as known in the art. The epitope tag consists of three tandem repeats of the FLAG epitope. Microtiter strip plates (Nunc Maxisorb) were incubated overnight at 4° C. with anti-FLAG IgG (100 μl/well of […] in phosphate-buffered saline). Binding data were analyzed by a single-site heterologous competition binding model. A corresponding microtiter plate antibody assay using the epitope-tagged IGF Type I receptor was employed to assess cross-binding of analogues to this homologous receptor.

B1: [His^A8, Asp^B28, Pro^B29]-SCI (57-mer single-chain insulin analogue, linker GGGPRR) (ligand)
chain: FVNQHLCGSHLVEALYLVCGERGFFYTDPTGGGPRRGIVEQCCHSICSLYQLENYCN
modifications: ends and bridges not checked; cysteine pairing not given here
notes: Made by total chemical synthesis and native ligation
Take B1: the Kd in test [1] and in test [2] was 27.6 nM each time.

B2: His^A8, Asp^B10, Asp^B28, Pro^B29 SCI (ligand)
chain: B1 chain with H10D
notes: also called SCI (His^A8, Asp^B10, Asp^B28, and Pro^B29); SCI containing the substitution Asp^B10
In test [2], B2 came in with a Kd of 9.89 nM.

For orientation: Kd means the concentration at which binding is half-saturated. Low values mean higher affinity, high ones lower affinity.
